According to US20030180282A1, “Method of treatment of thrombotic events” (priority 2002, published 2003):

Tested on: platelets
Assay: flow cytometry of platelet surface receptor expression in AMI patients during first 24 hours after r-PA or t-PA
Assay type: in vivo, human
Text: Twenty-three consecutive patients admitted to the emergency rooms of St. Agnes Hospital, or the Union Memorial Hospital between July and December of 1996 with a diagnosis of acute myocardial infarction were included. All patients were enrolled in the randomized trial of Reteplase (r-PA) versus accelerated Alteplase (t-PA) for the treatment of acute myocardial infarction, (GUSTO-III trial).
Blood samples for PA, and for flow cytometric studies were taken at prespecified intervals as follows: in the emergency room immediately before administration of the thrombolytic therapy and then in the coronary care unit at 3 hours, 6 hours, 12 hours, and finally at 24 hours after initiation of the r-PA or t-PA therapy.
Thirteen patients randomized to r-PA received a double bolus, 10+10 MU thirty minutes apart. Ten patients received t-PA in the accelerated regimen as a 15 mg bolus, then 0.75 mg/kg over 30 minutes, and then 0.50 mg/kg over 60 minutes. During the baseline sampling every patient had received 325 mg of aspirin and each day thereafter, at least 5,000 U of intravenous heparin. Following the administration of thrombolytic therapy all patients received a continuous infusion of heparin for the first 24 hours following thrombolysis as recommended in the GUSTO-III protocol.
The schedule of blood drawing, sample preparation and processing were critical issues of the study design, and were monitored by an independent observer. The actual timing of blood collection for the baseline sample was 9.5±1.4 minutes before the start of thrombolytic therapy; 174.6±21.8 minutes for the 3 hours sample; 371.1±24.2 minutes for 6 hours sample; 709.4±17.8 minutes for 12 hours sample; and 1402.9±18.8 minutes for 24 hours sample. Samples were processed within one hour after blood drawing. […] The reasons for early termination were as follows: patient transfer for emergency coronary angioplasty (3 patients), and inability to obtain blood sample (1 patient). Twenty three baseline samples; twenty two samples collected at 3 hours; twenty samples collected at 6 hours; twenty samples collected at 12 hours; and nineteen samples collected at 24 hours were included in the study analysis.
For flow cytometric analysis, venous blood (8 ml) was collected in a plastic tube containing 2 ml of acid-citrate-dextrose (ACD) (7.3 g citric acid, 22.0 g sodium citrate ×2H2O and 24.5 glucose in 1000 ml distilled water) and mixed well. The blood-ACD mixture was centrifuged at 1000 r.p.m. for 10 minutes at room temperature. The upper ⅔ of the platelet-rich plasma (PRP) was then collected and adjusted to pH=6.5 by adding ACD. The PRP was then centrifuged at 3000 r.p.m. for 10 minutes. The supernatant was removed and the platelet pellet was gently resuspended in 4 cc of the washing buffer (10 mM Tris/HCl, 0.15 M NaCl, 20 mM EDTA, pH=7.4). Platelets were washed 4 times in the washing buffer, and an additional four times in TBS (10 mM Tris, 0.15 M NaCl, pH=7.4). All cells were then divided into ten plastic capped tubes. Nine portions of washed platelets were incubated with 5 μl fluorescein isothiocyanate (FITC)-conjugated antibodies in the dark at +4° C. for 30 minutes, and one part remained unstained and served as a negative control. Surface antigen expression was measured with monoclonal murine anti-human antibodies: CD9 (p24); CD41a (IIb/IIIa, (IIb(3); CD42b (Ib); CD61(IIIa) (DAKO Corporation, Carpinteria Calif.); CD49b (VLA-2, or (2(1); CD62p (P selectin); CD31 (PECAM-1); CD 41b (IIb); and CD51/CD61 (vitronectin receptor, (v(3) (PharMingen, San Diego Calif.). After incubation, the cells were washed three times with TBS and resuspended in 0.25 ml of 1% paraformaldehyde. Samples were stored in the refrigerator at +4° C., and analyzed on a Becton Dickinson FACScan™ flow cytometry with laser output of 15 mw, excitation at 488 mm, and emission detection at 530±30 nm. […]

B1: t-PA: recombinant tissue plasminogen activator, thrombolytic agent (Genentech) (protein, UniProt P00750 36-562, looked up)
Tissue-type plasminogen …: SYQVICRDEKTQMIYQQHQSWLRPVLRSNRVEYCWCNSGRAQCHSVPVKSCSEPRCFNGGTCQQALYFSDFVCQCPEGFAGKCCEIDTRATCYEDQGISYRGTWSTAESGAECTNWNSSALAQKPYSGRRPDAIRLGLGNHNYCRNPDRDSKPWCYVFKAGKYSSEFCSTPACSEGNSDCYFGNGSAYRGTHSLTESGASCLPWNSMILIGKVYTAQNPSAQALGLGKHNYCRNPDGDAKPWCHVLKNRRLTWEYCDVPSCSTCGLRQYSQPQFRIKGGLFADIASHPWQAAIFAKHRRSPGERFLCGGILISSCWILSAAHCFQERFPPHHLTVILGRTYRVVPGEEEQKFEVEKYIVHKEFDDDTYDNDIALLQLKSDSSRCAQESSVVRTVCLPPADLQLPDWTECELSGYGKHEALSPFYSERLKEAHVRLYPSSRCTSQHLLNRTVTDNMLCAGDTRSGGPQANLHDACQGDSGGPLVCLNDGRMTLVGIISWGLGCGQKDVPGVYTKVTNYLDWIRDNMRP
12 hours
  glycoprotein IIIa expression compared to baseline: not after t-PA therapy
  glycoprotein Ib expression compared to baseline: significant inhibition
12 hours after thrombolysis
  platelet vitronectin receptor expression: significant increase
24 hours
  glycoprotein IIIa expression compared to baseline: not after t-PA therapy
  glycoprotein IIb/IIIa expression compared to baseline: elevated
  p24 (CD 9) expression compared to baseline: higher
24 hours after thrombolysis
  platelet vitronectin receptor expression: trended toward the baseline
early
  P-selectin expression, early change: early significant decrease
Early time points
  p24 (CD 9) expression compared to baseline: no early receptor inhibition
Following the early decrease
  P-selectin expression, later change: significant increase
